± gives the standard deviation of the averaged measurements.
test system: ATP; experiment: switch fluorescence ratio, 500 uM ATP over buffer (Cy3 cluster intensity, sum of 5 cycles each) (fold (ratio)); higher = stronger signal-on switching upon ATP binding; sequences stand for … in TCGTCGGCAGCGTCAGATGTGTATAAGAGACAGTTTTTTTTTTTTTTTTTTTTTTTTT…TC; conditions: aptamer strand: ATP DNA aptamer (quencher-CACCTGGGGGAGTATTGCGGAGGAAGG + anchor), 100 nM annealed; ATP concentration: 500 uM
Method in brief: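 Per cluster, summed Cy3 intensity from the target cycles was divided by that from the buffer cycles to give the fluorescence ratio, then averaged per switch-domain sequence. Clusters outside 100-1000 RFU were excluded. The Cy3-labelled switching-strand clusters, on a modified Illumina MiSeq flow-cell, were annealed to 100 nM quencher-labelled ATP aptamer and imaged in selection buffer, then after 15 min with 500 uM ATP at 22 °C, for five cycles with NaOH stripping and re-annealing between them.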
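Further: ATP exposure 15 min at 22 °C before imaging.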

Row | Sequence | switch fluorescence ratio
1 | TACAAAATGG | 0.997 ± 0.012
2 | TACAAATTGA | 1.02 ± 0.021
3 | TACAACGTGG | 0.991 ± 0.012
4 | TACAAGCCTA | 1.011 ± 0.0014
5 | TACAAGGGAT | 0.983 ± 0.013
6 | TACAATGTTT | 1.02 ± 0.059
7 | TACACCGCGG | 1.02 ± 0.027
8 | TACACCTCTA | 1.07 ± 0.028
9 | TACACGAAAA | 1.13 ± 0.13
10 | TACACTGAAA | 1.08 ± 0.026
11 | TACACTGAAT | 1.01 ± 0.038
12 | TACACTGATA | 1.08 ± 0.043
13 | TACAGAACGC | 1.24 ± 0.24
14 | TACAGAATGG | 0.991 ± 0.014
15 | TACAGCTGGG | 1.01 ± 0.016
16 | TACAGGATGG | 0.9694 ± 0.0057
17 | TACAGGGAGT | 1.06 ± 0.047
18 | TACAGGGCTG | 1.02 ± 0.057
19 | TACAGTGAAA | 1.05 ± 0.057
20 | TACATAAGTT | 1.02 ± 0.0074
21 | TACATAATTA | 0.993 ± 0.021
22 | TACATATGGT | 1.03 ± 0.0018
23 | TACATCGTTT | 1 ± 0.025
24 | TACATGATGG | 1 ± 0.035
25 | TACATGGGCA | 1.01 ± 0.044

Row | Sequence | switch fluorescence ratio
26 | TACATGTAGC | 0.986 ± 0.02
27 | TACATTTATA | 1.02 ± 0.019
28 | TACATTTTAC | 1.151 ± 0.0082
29 | TACCAACATC | 1.093 ± 0.0039
30 | TACCAGTCGC | 1.03 ± 0.026
31 | TACCAGTGCG | 1.19 ± 0.15
32 | TACCAGTGCT | 1.075 ± 0.0019
33 | TACCCGGTTT | 0.999 ± 0.026
34 | TACCGGATTT | 0.979 ± 0.0026
35 | TACCGTTTAT | 1.02 ± 0.036
36 | TACCTAATTA | 1.04 ± 0.046
37 | TACCTACATC | 1.26 ± 0.031
38 | TACCTCATGG | 1.01 ± 0.054
39 | TACCTGGTCG | 1.03 ± 0.041
40 | TACCTTGTCT | 1.04 ± 0.042
41 | TACGAATAGG | 1.017 ± 0.0043
42 | TACGCCTGTG | 1.01 ± 0.037
43 | TACGCTGGGG | 1.02 ± 0.04
44 | TACGCTTAGC | 1.1 ± 0.031
45 | TACGGAAGGA | 1.1 ± 0.021
46 | TACGGGAATT | 1.04 ± 0.023
47 | TACGGGAGCT | 1.05 ± 0.026
48 | TACGGGCCGG | 0.98 ± 0.011
49 | TACGGGGACG | 1.02 ± 0.026
50 | TACGGGGTAG | 0.996 ± 0.028

Row | Sequence | switch fluorescence ratio
51 | TACGGGTAGC | 1.04 ± 0.02
52 | TACGGTTTAG | 1 ± 0.048
53 | TACGTAATCT | 1.27 ± 0.014
54 | TACGTAATTT | 1.17 ± 0.018
55 | TACGTATAGG | 1.098 ± 0.0028
56 | TACGTCAGTC | 1.05 ± 0.028
57 | TACGTGCTCC | 1.144 ± 0.0012
58 | TACGTGGGGC | 1.01 ± 0.0079
59 | TACGTGGGGT | 1.01 ± 0.018
60 | TACGTGGGTA | 1 ± 0.0047
61 | TACGTTATAG | 1.11 ± 0.025
62 | TACGTTGCTT | 0.9959 ± 0.0022
63 | TACGTTGGCA | 1.03 ± 0.035
64 | TACGTTTACG | 1.018 ± 0.0027
65 | TACGTTTCT | 1 ± 0.054
66 | TACGTTTTGT | 1.01 ± 0.011
67 | TACTAGAACT | 1.03 ± 0.035
68 | TACTAGACAG | 1.028 ± 0.0016
69 | TACTATCGTT | 0.994 ± 0.01
70 | TACTATTTTA | 1 ± 0.016
71 | TACTCAGAGG | 1.04 ± 0.021
72 | TACTCTTCAT | 1.12 ± 0.15
73 | TACTCTTTTC | 1.02 ± 0.034
74 | TACTGAAGGG | 1.02 ± 0.031
75 | TACTGAATGT | 1.02 ± 0.013

Row | Sequence | switch fluorescence ratio
76 | TACTGATCGT | 1.04 ± 0.024
77 | TACTGCCAGC | 1.08 ± 0.054
78 | TACTGGCTGT | 1.01 ± 0.029
79 | TACTGGGCAC | 3.22 ± 3
80 | TACTGGGGCT | 1.04 ± 0.034
81 | TACTGGTCCG | 1.08 ± 0.074
82 | TACTGTTTTT | 0.9832 ± 0.0056
83 | TACTTATCCT | 1.05 ± 0.042
84 | TACTTCATTT | 1.03 ± 0.041
85 | TACTTCCTCC | 3.8 ± 0.44
86 | TACTTCGAGA | 1.081 ± 0.0099
87 | TACTTGCGGA | 1.03 ± 0.042
88 | TACTTGGGC | 1.02 ± 0.021
89 | TACTTTAGAC | 1.05 ± 0.011
90 | TACTTTCTGC | 1.02 ± 0.066
91 | TACTTTGCTT | 1.06 ± 0.038
92 | TACTTTTATT | 1.026 ± 0.0066
93 | TACTTTTTGG | 0.9872 ± 0.0092
94 | TAGAAAGGGT | 1.01 ± 0.041
95 | TAGAAAGGTC | 1.073 ± 0.0025
96 | TAGAAAGTTG | 0.953 ± 0.083
97 | TAGAAATTTC | 1.02 ± 0.036
98 | TAGAACAGTT | 0.9982 ± 0.0013
99 | TAGACATGTT | 1 ± 0.13
100 | TAGACGGGGG | 1 ± 0.04

Row | Sequence | switch fluorescence ratio
101 | TAGACTTTTT | 0.997 ± 0.03
102 | TAGAGAAAAT | 0.964 ± 0.053
103 | TAGAGAGCCA | 1.03 ± 0.041
104 | TAGAGAGGAG | 1.03 ± 0.021
105 | TAGAGATGGT | 0.962 ± 0.024
106 | TAGAGGCTGC | 0.958 ± 0.042
107 | TAGAGGGGCT | 0.993 ± 0.03
108 | TAGAGGGGTG | 0.991 ± 0.0026
109 | TAGAGGGGTT | 0.985 ± 0.02
110 | TAGAGGGTGC | 0.967 ± 0.052
111 | TAGAGGTAGG | 0.979 ± 0.018
112 | TAGAGGTATG | 1.01 ± 0.028
113 | TAGAGTCCAT | 1.02 ± 0.019
114 | TAGAGTCGTG | 0.981 ± 0.027
115 | TAGAGTTTGG | 1 ± 0.045
116 | TAGATAAGGC | 0.981 ± 0.018
117 | TAGATATGAG | 1.009 ± 0.0012
118 | TAGATCGGGG | 1.008 ± 0.01
119 | TAGATGCTTT | 0.96461 ± 0.00038
120 | TAGATGGGGC | 0.967 ± 0.029
121 | TAGATGTCAG | 0.986 ± 0.016
122 | TAGATGTGTT | 1.01 ± 0.023
123 | TAGATTAGGA | 1.01 ± 0.036
124 | TAGATTGTCT | 1.01 ± 0.03
125 | TAGATTTTGC | 1.03 ± 0.027

Row | Sequence | switch fluorescence ratio
126 | TAGCAAGTG | 1.04 ± 0.041
127 | TAGCAGGGTT | 0.9852 ± 0.0061
128 | TAGCAGTCGA | 1.09 ± 0.058
129 | TAGCAGTTGG | 0.988 ± 0.02
130 | TAGCCATGTC | 0.924 ± 0.053
131 | TAGCCCTGTG | 1.05 ± 0.014
132 | TAGCCGGCCT | 1.05 ± 0.025
133 | TAGCCTATTT | 0.975 ± 0.038
134 | TAGCCTTACG | 1.123 ± 0.0043
135 | TAGCGAGTAT | 1 ± 0.011
136 | TAGCGATGGG | 1.01 ± 0.017
137 | TAGCGCTTTA | 1.01 ± 0.017
138 | TAGCGGGAGG | 1.02 ± 0.024
139 | TAGCGGGGCT | 1.04 ± 0.043
140 | TAGCTAGACG | 1.01 ± 0.012
141 | TAGCTAGCGT | 1.01 ± 0.019
142 | TAGCTGAGAC | 1.162 ± 0.006
143 | TAGCTGAGGT | 1.03 ± 0.017
144 | TAGCTGCAAA | 1.05 ± 0.024
145 | TAGCTGGCTG | 0.986 ± 0.043
146 | TAGCTGGGGA | 1.01 ± 0.033
147 | TAGCTGGGGG | 0.995 ± 0.021
148 | TAGCTTAACA | 0.979 ± 0.018
149 | TAGCTTCTCC | 1.34 ± 0.033
150 | TAGGAAAGGG | 0.997 ± 0.027

Row | Sequence | switch fluorescence ratio
151 | TAGGAAGATG | 1.02 ± 0.1
152 | TAGGAAGCGT | 0.9777 ± 0.0039
153 | TAGGAAGGGT | 0.997 ± 0.028
154 | TAGGAGAGAC | 0.998 ± 0.057
155 | TAGGAGGCGG | 0.958 ± 0.039
156 | TAGGAGGGTG | 1.01 ± 0.035
157 | TAGGAGGTAC | 1.01 ± 0.054
158 | TAGGATGAGT | 0.99997 ± 0.00035
159 | TAGGATGTCT | 1 ± 0.0021
160 | TAGGATTACT | 1.02 ± 0.014
161 | TAGGCACAAC | 1.15 ± 0.025
162 | TAGGCAGGGG | 1.08 ± 0.021
163 | TAGGCCTCGA | 0.985 ± 0.026
164 | TAGGCGGTTT | 0.9641 ± 0.00067
165 | TAGGCGTGCG | 0.976 ± 0.052
166 | TAGGCTAGGG | 0.9713 ± 0.0062
167 | TAGGCTCCAA | 1.01 ± 0.02
168 | TAGGGAATAG | 1.14 ± 0.12
169 | TAGGGACGCC | 1.031 ± 0.0046
170 | TAGGGACGGC | 1.07 ± 0.095
171 | TAGGGAGAAT | 0.992 ± 0.054
172 | TAGGGAGGA | 0.98 ± 0.022
173 | TAGGGAGGTG | 1.04 ± 0.053
174 | TAGGGATAGC | 0.985 ± 0.013
175 | TAGGGATTTC | 0.997 ± 0.019

Row | Sequence | switch fluorescence ratio
176 | TAGGGCACGA | 0.97 ± 0.08
177 | TAGGGCAGGT | 1.01 ± 0.036
178 | TAGGGCATCA | 0.987 ± 0.042
179 | TAGGGCTGCA | 1.06 ± 0.079
180 | TAGGGGAAGG | 1.03 ± 0.05
181 | TAGGGGACCG | 0.991 ± 0.017
182 | TAGGGGAGAC | 1.06 ± 0.047
183 | TAGGGGAGGT | 1.01 ± 0.016
184 | TAGGGGAGTG | 1.02 ± 0.035
185 | TAGGGGATCA | 0.9839 ± 0.0036
186 | TAGGGGCAGT | 1.09 ± 0.14
187 | TAGGGGGCTT | 1.01 ± 0.018
188 | TAGGGGGGTA | 0.982 ± 0.035
189 | TAGGGGGGTC | 1 ± 0.066
190 | TAGGGGGGTT | 1 ± 0.04
191 | TAGGGGTCCT | 1.01 ± 0.046
192 | TAGGGGTTAT | 0.995 ± 0.015
193 | TAGGGTATGT | 1.01 ± 0.018
194 | TAGGGTCGG | 1 ± 0.053
195 | TAGGGTCGT | 0.9932 ± 0.0024
196 | TAGGGTGGGA | 0.99 ± 0.025
197 | TAGGGTGGGC | 0.954 ± 0.028
198 | TAGGGTTAAT | 1.03 ± 0.038
199 | TAGGGTTGGG | 1 ± 0.031
200 | TAGGTAAGGG | 0.99 ± 0.026

From the supplement of paper PMC10126150
